In general, kon refers to the second-order rate constant of association. High values mean fast association, low ones slow association.

Sequences and labels used below:
B1: murine m11E6 antibody (antibody, V domains shown)
VH: EVKVVESGGGLVQPGGSLRLSCTTSGFTFTDYYVSWVRQPPGKALEWLGFIRNKVNGYTTEFSSSVKGRFTISRDNSQSILYLQMNTLRVEDSATYYCARVSYYGRGWYFDYWGQGTTLTVSS
VL: DIVMTQSTSSLSASLGDRVTISCRASQDIDNYLSWFQQKPDGTVKLLIYYTSRLHSGVPSRFSGSGSGTDYSLTISSLDQEDIATYFCQQGNTFPWTFGGGTKLEIK
notes: also called parental murine 11E6 antibody
B2: murine m1B7 antibody (antibody, V domains shown)
VH: QVQLQQPGSELVRPGASVKLSCKASGYKFTSYWMHWVKQRPGQGLEWIGNIFPGSGSTNYDEKFNSKATLTVDTSSNTAYMQLSSLTSEDSAVYYCTRWLSGAYFDYWGQGTTLTVSS
VL: QIVLTQSPALMSASPGEKVTMTCSASSSVSFMYWYQQKPRSSPKPWIYLTSNLPSGVPARFSGSGSGTSYSLTISSMEAEDAATYYCQQWSSHPPTFGSGTKLEIK
notes: also called parental murine 1B7 antibody
B3: chimeric 1B7 antibody (antibody, V domains shown)
VH: B2 VH
VL: B2 VL
notes: also called ch1B7

This assay deals with T1, pertussis toxin protein (Bordetella pertussis, UniProt P04977 35-269; P04978 28-226; P04979 29-227; P0A3R5 43-152; P04981 35-133).
T1 construct: also called PTx; PT
The assay can be described thus: BIAcore.
B1 gave a kon of 80000 M⁻¹ s⁻¹.
Then B2, with 170000 M⁻¹ s⁻¹; and B3, with 150000 M⁻¹ s⁻¹.

Values taken from US20170066816A1 (University of Texas, published 2017).
